Measured values: the supplement of paper PMC9112550, “Optimization of the antimicrobial peptide Bac7 by deep mutational scanning” (BMC Biology, 2022)

Each sequence was assayed on Escherichia coli TOP10 (assay: shrunken log2 fold change of peptide-encoding DNA abundance (4.5 h post-induction vs induction); higher = less antimicrobial activity (less host growth inhibition)). Conditions: time post-induction: 4.5 h; library: site-saturation at positions 5, 18, 19, 20.
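Further: peptides expressed intracellularly from a pBAD plasmid library in pooled LB shake-flask culture, induced with 0.3% L-arabinose, DNA abundance read by NGS, three biological replicates, DESeq2 with apeglm shrinkage.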

Row | Sequence | shrunken log2 fold change
1 | RRIRSRPPRLPRPRPRPVLHPRP | -0.201
2 | RRIRNRPPRLPRPRPRPWMSPRP | -0.0131
3 | RRIRPRPPRLPRPRPRPCYVPRP | -0.469
4 | RRIRVRPPRLPRPRPRPLDEPRP | -0.0276
5 | RRIRQRPPRLPRPRPRPRGAPRP | 0.399
6 | RRIRPRPPRLPRPRPRPPGLPRP | 0.268
7 | RRIRDRPPRLPRPRPRPLSEPRP | 0.111
8 | RRIRDRPPRLPRPRPRPCLSPRP | 0.000319
9 | RRIRFRPPRLPRPRPRPLRYPRP | -0.192
10 | RRIRVRPPRLPRPRPRPWDYPRP | -0.0898
11 | RRIRSRPPRLPRPRPRPSMMPRP | -0.105
12 | RRIRYRPPRLPRPRPRPRQIPRP | -0.137
13 | RRIRARPPRLPRPRPRPPFCPRP | 0.31
14 | RRIRDRPPRLPRPRPRPIRRPRP | -0.00194
15 | RRIRPRPPRLPRPRPRPLHCPRP | -0.382
16 | RRIRLRPPRLPRPRPRPFSAPRP | -0.177
17 | RRIRERPPRLPRPRPRPIVRPRP | -0.0604
18 | RRIRWRPPRLPRPRPRPTEVPRP | 0.0181
19 | RRIRIRPPRLPRPRPRPWCHPRP | -0.122
20 | RRIRWRPPRLPRPRPRPYNLPRP | -0.991
21 | RRIRVRPPRLPRPRPRPPSTPRP | 0.238
22 | RRIRGRPPRLPRPRPRPYQKPRP | -0.00887
23 | RRIRMRPPRLPRPRPRPNEMPRP | 0.318
24 | RRIRNRPPRLPRPRPRPQKSPRP | -0.101
25 | RRIRCRPPRLPRPRPRPWVKPRP | -0.352

Row | Sequence | shrunken log2 fold change
26 | RRIRFRPPRLPRPRPRPLPEPRP | 0.224
27 | RRIRTRPPRLPRPRPRPEQFPRP | -0.0905
28 | RRIRQRPPRLPRPRPRPFSIPRP | -0.104
29 | RRIRRRPPRLPRPRPRPYDRPRP | -0.164
30 | RRIRLRPPRLPRPRPRPSKMPRP | -0.212
31 | RRIRCRPPRLPRPRPRPADLPRP | -0.24
32 | RRIRERPPRLPRPRPRPYMIPRP | -0.259
33 | RRIRVRPPRLPRPRPRPINLPRP | -0.304
34 | RRIRMRPPRLPRPRPRPQNWPRP | 0.532
35 | RRIRDRPPRLPRPRPRPSVTPRP | 0.0709
36 | RRIRPRPPRLPRPRPRPELNPRP | 0.117
37 | RRIRIRPPRLPRPRPRPIFVPRP | -0.28
38 | RRIRYRPPRLPRPRPRPMNYPRP | -0.49
39 | RRIRHRPPRLPRPRPRPGDFPRP | -0.147
40 | RRIRQRPPRLPRPRPRPAEIPRP | -0.219
41 | RRIRKRPPRLPRPRPRPVGMPRP | 0.554
42 | RRIRERPPRLPRPRPRPRNYPRP | -0.491
43 | RRIRDRPPRLPRPRPRPHKSPRP | -0.17
44 | RRIRIRPPRLPRPRPRPECMPRP | -0.428
45 | RRIRPRPPRLPRPRPRPKLQPRP | -0.00543
46 | RRIRGRPPRLPRPRPRPQGHPRP | 0.278
47 | RRIRGRPPRLPRPRPRPTDNPRP | 0.283
48 | RRIRFRPPRLPRPRPRPVEFPRP | -0.591
49 | RRIRIRPPRLPRPRPRPPAQPRP | 0.0916
50 | RRIRWRPPRLPRPRPRPACAPRP | 0.766

Row | Sequence | shrunken log2 fold change
51 | RRIRARPPRLPRPRPRPPPNPRP | 1.35
52 | RRIRMRPPRLPRPRPRPVLNPRP | -0.232
53 | RRIRRRPPRLPRPRPRPQSSPRP | -0.0217
54 | RRIRMRPPRLPRPRPRPVLGPRP | 0.741
55 | RRIRNRPPRLPRPRPRPRRSPRP | 0.428
56 | RRIRHRPPRLPRPRPRPRYHPRP | -0.315
57 | RRIRPRPPRLPRPRPRPWHLPRP | -0.233
58 | RRIRKRPPRLPRPRPRPADMPRP | 0.399
59 | RRIRHRPPRLPRPRPRPEKLPRP | 0.0208
60 | RRIRQRPPRLPRPRPRPAYIPRP | -0.00563
61 | RRIRPRPPRLPRPRPRPMTVPRP | -0.038
62 | RRIRVRPPRLPRPRPRPMFAPRP | -0.0323
63 | RRIRYRPPRLPRPRPRPINNPRP | -0.892
64 | RRIRFRPPRLPRPRPRPMGHPRP | -0.184
65 | RRIRARPPRLPRPRPRPLSIPRP | -0.308
66 | RRIRNRPPRLPRPRPRPAPRPRP | 1.6
67 | RRIRGRPPRLPRPRPRPESHPRP | 0.124
68 | RRIRWRPPRLPRPRPRPRNGPRP | 0.401
69 | RRIRDRPPRLPRPRPRPPTGPRP | 0.522
70 | RRIRIRPPRLPRPRPRPHLLPRP | 0.0103
71 | RRIRHRPPRLPRPRPRPETMPRP | 0.054
72 | RRIRFRPPRLPRPRPRPTTCPRP | -0.19
73 | RRIRKRPPRLPRPRPRPVTRPRP | 0.754
74 | RRIRYRPPRLPRPRPRPDYCPRP | -0.00674
75 | RRIRYRPPRLPRPRPRPQTHPRP | -1.08

Row | Sequence | shrunken log2 fold change
76 | RRIRQRPPRLPRPRPRPSDVPRP | -0.0706
77 | RRIRNRPPRLPRPRPRPGMLPRP | -0.184
78 | RRIRPRPPRLPRPRPRPHYLPRP | -0.906
79 | RRIRPRPPRLPRPRPRPMEYPRP | -0.00176
80 | RRIRSRPPRLPRPRPRPVSAPRP | 2.53
81 | RRIRQRPPRLPRPRPRPPLHPRP | 0.24
82 | RRIRYRPPRLPRPRPRPKYSPRP | -0.274
83 | RRIRCRPPRLPRPRPRPCHIPRP | -0.0941
84 | RRIRGRPPRLPRPRPRPIPEPRP | 0.462
85 | RRIRPRPPRLPRPRPRPVSCPRP | -0.095
86 | RRIRDRPPRLPRPRPRPTRDPRP | 0.734
87 | RRIRSRPPRLPRPRPRPQARPRP | 0.122
88 | RRIRIRPPRLPRPRPRPARAPRP | 0.307
89 | RRIRQRPPRLPRPRPRPLGGPRP | -0.12
90 | RRIRKRPPRLPRPRPRPMRKPRP | 1.44
91 | RRIRDRPPRLPRPRPRPEIFPRP | -0.0297
92 | RRIRIRPPRLPRPRPRPGRTPRP | 0.0928
93 | RRIRPRPPRLPRPRPRPCYCPRP | -0.722
94 | RRIRFRPPRLPRPRPRPWVVPRP | 0.0143
95 | RRIRGRPPRLPRPRPRPQQWPRP | 0.067
96 | RRIRYRPPRLPRPRPRPGGDPRP | 0.137
97 | RRIRARPPRLPRPRPRPDDYPRP | -0.0457
98 | RRIRPRPPRLPRPRPRPFCRPRP | 0.00205
99 | RRIRDRPPRLPRPRPRPEDPPRP | 0.439
100 | RRIRSRPPRLPRPRPRPIPCPRP | -0.297

Row | Sequence | shrunken log2 fold change
101 | RRIRPRPPRLPRPRPRPAYDPRP | -0.26
102 | RRIRPRPPRLPRPRPRPHNDPRP | -0.566
103 | RRIRARPPRLPRPRPRPGSDPRP | 0.536
104 | RRIRGRPPRLPRPRPRPNDHPRP | 0.143
105 | RRIRHRPPRLPRPRPRPHCNPRP | -0.158
106 | RRIRWRPPRLPRPRPRPDWQPRP | 0.00408
107 | RRIRERPPRLPRPRPRPMFNPRP | -0.607
108 | RRIRQRPPRLPRPRPRPYSKPRP | -0.119
109 | RRIRSRPPRLPRPRPRPWRSPRP | 0.00174
110 | RRIRMRPPRLPRPRPRPQFFPRP | -0.207
111 | RRIRWRPPRLPRPRPRPGTVPRP | -0.148
112 | RRIRNRPPRLPRPRPRPAGFPRP | 0.0141
113 | RRIRQRPPRLPRPRPRPWGRPRP | 0.00592
114 | RRIRARPPRLPRPRPRPTISPRP | 0.0389
115 | RRIRWRPPRLPRPRPRPVCMPRP | 0.193
116 | RRIRDRPPRLPRPRPRPSDTPRP | -0.343
117 | RRIRLRPPRLPRPRPRPAYPPRP | 0.283
118 | RRIRRRPPRLPRPRPRPQYWPRP | -0.147
119 | RRIRHRPPRLPRPRPRPKKRPRP | -0.163
120 | RRIRHRPPRLPRPRPRPYIVPRP | -0.191
121 | RRIRKRPPRLPRPRPRPYKYPRP | -0.00882
122 | RRIRNRPPRLPRPRPRPWHMPRP | -0.0135
123 | RRIRRRPPRLPRPRPRPNMDPRP | -0.442
124 | RRIRDRPPRLPRPRPRPKVCPRP | -0.0149
125 | RRIRKRPPRLPRPRPRPGYGPRP | 0.13

Row | Sequence | shrunken log2 fold change
126 | RRIRPRPPRLPRPRPRPTLDPRP | 0.172
127 | RRIRWRPPRLPRPRPRPCWHPRP | -0.259
128 | RRIRLRPPRLPRPRPRPMHCPRP | -0.00782
129 | RRIRARPPRLPRPRPRPTVNPRP | -0.0152
130 | RRIRVRPPRLPRPRPRPKYYPRP | -0.921
131 | RRIRNRPPRLPRPRPRPYKIPRP | -0.0214
132 | RRIRGRPPRLPRPRPRPMCIPRP | 0.166
133 | RRIRTRPPRLPRPRPRPMNFPRP | -0.638
134 | RRIRRRPPRLPRPRPRPGCQPRP | -0.176
135 | RRIRVRPPRLPRPRPRPPTNPRP | 1.14
136 | RRIRQRPPRLPRPRPRPCDSPRP | -0.0167
137 | RRIRVRPPRLPRPRPRPWQCPRP | -0.00264
138 | RRIRWRPPRLPRPRPRPEGCPRP | 1.22
139 | RRIRTRPPRLPRPRPRPQVIPRP | -0.232
140 | RRIRTRPPRLPRPRPRPIARPRP | -0.00992
141 | RRIRKRPPRLPRPRPRPGKMPRP | -0.0991
142 | RRIRDRPPRLPRPRPRPTFQPRP | 0.0497
143 | RRIRPRPPRLPRPRPRPDYCPRP | -0.367
144 | RRIRSRPPRLPRPRPRPKHAPRP | 0.143
145 | RRIRQRPPRLPRPRPRPGGTPRP | 0.11
146 | RRIRTRPPRLPRPRPRPDAHPRP | 0.128
147 | RRIRKRPPRLPRPRPRPWYVPRP | -0.958
148 | RRIRRRPPRLPRPRPRPKQYPRP | -0.215
149 | RRIRSRPPRLPRPRPRPVVDPRP | 0.125
150 | RRIRIRPPRLPRPRPRPGHRPRP | 0.0543
